This note sets out measurements from patent publication US20080058636A1, “METHODS OF MYOCARDIAL IMAGING” (Epix Pharmaceuticals, Inc., priority 2005, published 2008).

Bridge positions count the residues as written; N and C are the ends. Square brackets hold non-standard residues; d marks the D form. Ends that are not written are not given here. bb‑DTPA gadolinium tetramer = not defined here

The target in series [1] is T1, dried human collagen type I (Homo sapiens, UniProt P02452+P08123).
T1 construct: Acid soluble human collagen extracted from placenta; purchased Sigma C7774; host or cells: human placenta (tissue extract)
T1 sequence (P02452 162-1218 limits assumed): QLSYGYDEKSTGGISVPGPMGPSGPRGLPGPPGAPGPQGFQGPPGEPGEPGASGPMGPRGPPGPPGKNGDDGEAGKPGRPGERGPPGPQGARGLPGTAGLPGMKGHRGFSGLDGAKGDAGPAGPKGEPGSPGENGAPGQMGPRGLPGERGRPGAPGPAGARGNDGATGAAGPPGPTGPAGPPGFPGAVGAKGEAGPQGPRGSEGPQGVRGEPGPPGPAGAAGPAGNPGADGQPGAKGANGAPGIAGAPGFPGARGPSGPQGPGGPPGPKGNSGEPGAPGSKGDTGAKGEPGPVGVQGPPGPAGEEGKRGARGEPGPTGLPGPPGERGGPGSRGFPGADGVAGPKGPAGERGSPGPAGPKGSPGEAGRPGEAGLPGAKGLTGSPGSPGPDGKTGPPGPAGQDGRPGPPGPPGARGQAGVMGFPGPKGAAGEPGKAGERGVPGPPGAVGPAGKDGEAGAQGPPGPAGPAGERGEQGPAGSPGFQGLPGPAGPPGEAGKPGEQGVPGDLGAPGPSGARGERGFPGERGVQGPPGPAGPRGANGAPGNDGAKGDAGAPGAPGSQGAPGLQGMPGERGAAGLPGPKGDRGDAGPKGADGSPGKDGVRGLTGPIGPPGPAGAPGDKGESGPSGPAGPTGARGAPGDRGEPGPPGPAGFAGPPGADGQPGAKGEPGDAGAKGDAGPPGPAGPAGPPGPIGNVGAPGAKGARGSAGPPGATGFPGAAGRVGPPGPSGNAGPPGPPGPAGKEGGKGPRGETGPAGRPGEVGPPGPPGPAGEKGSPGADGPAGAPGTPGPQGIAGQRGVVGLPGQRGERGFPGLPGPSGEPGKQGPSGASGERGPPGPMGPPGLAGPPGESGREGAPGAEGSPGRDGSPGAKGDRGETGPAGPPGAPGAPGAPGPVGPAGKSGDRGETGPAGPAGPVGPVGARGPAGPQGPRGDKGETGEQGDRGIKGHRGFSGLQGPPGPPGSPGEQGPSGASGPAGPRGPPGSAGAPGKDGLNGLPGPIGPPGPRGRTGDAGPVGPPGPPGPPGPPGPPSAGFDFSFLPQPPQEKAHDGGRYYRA
T1 sequence (P08123 80-1119 limits assumed): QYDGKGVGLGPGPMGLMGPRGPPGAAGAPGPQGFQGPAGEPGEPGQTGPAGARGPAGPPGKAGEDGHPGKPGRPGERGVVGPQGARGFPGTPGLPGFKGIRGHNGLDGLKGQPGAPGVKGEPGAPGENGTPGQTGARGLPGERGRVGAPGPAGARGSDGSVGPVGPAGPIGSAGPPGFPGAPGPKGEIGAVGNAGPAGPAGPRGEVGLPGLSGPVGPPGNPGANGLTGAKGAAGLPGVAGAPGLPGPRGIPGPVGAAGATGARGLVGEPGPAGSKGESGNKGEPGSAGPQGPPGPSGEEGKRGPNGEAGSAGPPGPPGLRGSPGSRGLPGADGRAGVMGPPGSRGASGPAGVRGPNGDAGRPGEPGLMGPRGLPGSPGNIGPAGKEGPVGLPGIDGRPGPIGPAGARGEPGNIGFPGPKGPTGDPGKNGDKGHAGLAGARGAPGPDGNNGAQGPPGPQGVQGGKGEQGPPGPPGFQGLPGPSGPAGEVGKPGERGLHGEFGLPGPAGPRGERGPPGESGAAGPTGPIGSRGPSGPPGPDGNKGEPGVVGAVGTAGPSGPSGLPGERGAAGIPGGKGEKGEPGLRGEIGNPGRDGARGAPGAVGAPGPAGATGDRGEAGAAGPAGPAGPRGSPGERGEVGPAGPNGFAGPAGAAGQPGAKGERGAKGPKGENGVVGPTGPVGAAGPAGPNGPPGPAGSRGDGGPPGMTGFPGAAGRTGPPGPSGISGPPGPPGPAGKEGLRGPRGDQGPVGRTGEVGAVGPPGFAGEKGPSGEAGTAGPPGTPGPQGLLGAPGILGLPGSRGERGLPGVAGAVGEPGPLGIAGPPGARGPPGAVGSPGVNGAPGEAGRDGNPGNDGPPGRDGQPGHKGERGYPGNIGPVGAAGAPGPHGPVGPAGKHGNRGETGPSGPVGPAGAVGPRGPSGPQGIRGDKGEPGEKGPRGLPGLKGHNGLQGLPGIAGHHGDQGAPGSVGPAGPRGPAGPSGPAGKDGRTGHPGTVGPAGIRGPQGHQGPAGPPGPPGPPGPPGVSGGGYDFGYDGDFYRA
The series can be described thus: Dried collagen assay (DCA), human collagen. In kind it is binding. To be noted: 5 μM peptide in PBS pH 7.4, 2 hours at room temperature; percent bound.
Method: Acid soluble human collagen extracted from placenta (Sigma, cat# C7774, lot# 083K375) is dissolved in 15 mM HCl (3.5 mg/ml) by vortexing and gently shaking for 3-4 hours at 4° C. The acid soluble collagen is dissolved against PBS, pH 7.4 (three buffer exchanges are used). […] Percent gelation (fibril formation) of the collagen is determined by incubating 10 μM collagen (3.3 mg/ml) at 37° C. for 6 hours.

Series [2] addresses T2, dried rat collagen type I (Rattus norvegicus, UniProt P02454+P02466).
T2 construct: Rat collagen (acid soluble, type I, rat tail, Upstate USA, Inc, cat# 08-115); purchased Upstate USA, Inc 08-115; host or cells: rat tail (tissue extract)
The series can be described thus: Dried collagen assay (DCA), rat collagen. In kind it is binding. The note with it: for % Collagen Binding, Dried Rat: 5 μM peptide in PBS pH 7.4, 2 hours at room temperature, percent bound. Here is the method: Peptides identified using the phage-display protocol were screened using dried collagen assays (DCA) as described in A.-D. below.
For the final assay, a 1:10 volume of 10×PBS (100 mM NaH2PO4, 1.5 M NaCl pH 7.4) is added to the collagen solution (final 1×PBS) and incubated at 37° C. for 2 hours.
An additional 90 μL is reserved in a HPLC glass vial as a measure of the total concentration.

Series [3] has as its system perfused Langendorff rat heart. The experiment in a line: Equilibrium binding to perfused Langendorff rat heart. To be noted: for heart uptake relative to GdDTPA: perfused rat heart; for Heart: 10 minutes recirculating perfusion. As for the experimental part: After deep anesthesia with pentobarbital (80 mg/kg ip), the chest cavity of a male Sprague Dawley rat (300 g) was opened, retracted and the heart was removed immediately and placed in an ice-cold normal Krebs-Henseleit (K-H) solution (NaCl, 118 mM; KCl, 4.7 mM; CaCl2, 2.5 mM; MgSO4, 1.2 mM; KH2PO4, 1.2 mM; NaHCO3, 25 mM; glucose, 5.5 mM). A K-H buffer filled 20 Gauge needle was inserted into the apex of the heart penetrating into the bottom of the chamber. This was attached to a pressure transducer used to record and monitor heart function. Perfusion pressure (60 mmHg) was monitored using a second transducer. The heart was perfused at a constant flow rate of 10-12 mL/min with 37° C. Krebs-Henseleit buffer saturated with a mixture of 95% O2 and 5% CO2 gas. The heart was paced at 300 beats/min.
Two peptide test articles, a high collagen binding peptide (SEQ ID NO: 144) and a low collagen binding peptide (SEQ ID NO: 173), are compared to GdDTPA. The appropriate test article was added to the K-H buffer solution to a total concentration of either 3 or 30 μM. Also added to the K-H buffer was a radiotracer analog of each peptide or GdDTPA. For the peptides, the radiotracer was an aliquot of the appropriate I-125 labeled peptide derivative (see Example 5 for protocol). For GdDTPA, the tracer added was Tc-99m labeled DTPA. The amount of radioactivity added to the buffer solution was 1-5 μCi.
The heart was perfused for a period of 10 minutes and the perfusion solution was recycled through the heart. The total volume of K-H buffer used was 50-60 mL. After 10 min, the heart was removed from the apparatus and any connective tissue was removed. The heart was opened, fluid in the chambers drained, and the interior blotted dry with filter paper. The heart was then weighed and the radioactivity in the heart measured with a Packard Cobra 5003 Gamma Scintillation counter. An aliquot of the K-H buffer was also weighed and counted. Studies were performed at least in duplicate.
The dual peptide gadolinium tetramer (Compound ID 803) was compared to GdDTPA. Compound ID 803 and GdDTPA were added to the K-H buffer solution to a total concentration of 3 μM. Also added to the K-H buffer was a radiotracer analog of Compound ID 803 or GdDTPA. For Compound ID 803, the radiotracer was an aliquot of the In-111 labeled compound. For GdDTPA, the tracer added was Tc-99m labeled DTPA. The amount of radioactivity added to the buffer solution was 1-5 μCi.

The subject of series [4] is perfused Langendorff rat heart. The series can be described thus: Washout kinetics from perfused Langendorff rat heart. To be noted: for fraction of compound present at 0 minutes post infusion that remains at 10 minutes: 10 minutes after infusion. As for the experimental part: A K-H buffer filled 20 Gauge needle was inserted into the apex of the heart penetrating into the bottom of the chamber. This was attached to a pressure transducer used to record and monitor heart function. Perfusion pressure (60 mmHg) was monitored using a second transducer. The heart was perfused at a constant flow rate of 10-12 mL/min with 37° C. […] The heart was paced at 300 beats/min.
A Langendorff rat heart preparation was perfused with K-H buffer at a rate of 10-12 mL/min. […] After the infusion was finished, the heart was either removed or perfusion was allowed to continue for an additional 10 minutes and then the heart was removed. The perfusion buffer was not recirculated through the heart. After removal of any connective tissue, the heart was opened, fluid in the chambers drained, and the interior blotted dry with filter paper. […] An aliquot of the K-H buffer was also weighed and counted. Concentration estimates were decay corrected. Studies were performed at least in duplicate.

Series [5] in a line: Biodistribution (heart, blood) after tail vein injection, radiotracer counting. It counts as in vivo, Sprague-Dawley rats. The note with it: for Blood (% ID/g) / Heart (% ID/g): rat, 0.5 μmol/kg tail vein. As for the experimental part: Concentration estimates were decay corrected. Studies were performed at least in duplicate.

T2 sequence (P02454 152-1207 limits assumed): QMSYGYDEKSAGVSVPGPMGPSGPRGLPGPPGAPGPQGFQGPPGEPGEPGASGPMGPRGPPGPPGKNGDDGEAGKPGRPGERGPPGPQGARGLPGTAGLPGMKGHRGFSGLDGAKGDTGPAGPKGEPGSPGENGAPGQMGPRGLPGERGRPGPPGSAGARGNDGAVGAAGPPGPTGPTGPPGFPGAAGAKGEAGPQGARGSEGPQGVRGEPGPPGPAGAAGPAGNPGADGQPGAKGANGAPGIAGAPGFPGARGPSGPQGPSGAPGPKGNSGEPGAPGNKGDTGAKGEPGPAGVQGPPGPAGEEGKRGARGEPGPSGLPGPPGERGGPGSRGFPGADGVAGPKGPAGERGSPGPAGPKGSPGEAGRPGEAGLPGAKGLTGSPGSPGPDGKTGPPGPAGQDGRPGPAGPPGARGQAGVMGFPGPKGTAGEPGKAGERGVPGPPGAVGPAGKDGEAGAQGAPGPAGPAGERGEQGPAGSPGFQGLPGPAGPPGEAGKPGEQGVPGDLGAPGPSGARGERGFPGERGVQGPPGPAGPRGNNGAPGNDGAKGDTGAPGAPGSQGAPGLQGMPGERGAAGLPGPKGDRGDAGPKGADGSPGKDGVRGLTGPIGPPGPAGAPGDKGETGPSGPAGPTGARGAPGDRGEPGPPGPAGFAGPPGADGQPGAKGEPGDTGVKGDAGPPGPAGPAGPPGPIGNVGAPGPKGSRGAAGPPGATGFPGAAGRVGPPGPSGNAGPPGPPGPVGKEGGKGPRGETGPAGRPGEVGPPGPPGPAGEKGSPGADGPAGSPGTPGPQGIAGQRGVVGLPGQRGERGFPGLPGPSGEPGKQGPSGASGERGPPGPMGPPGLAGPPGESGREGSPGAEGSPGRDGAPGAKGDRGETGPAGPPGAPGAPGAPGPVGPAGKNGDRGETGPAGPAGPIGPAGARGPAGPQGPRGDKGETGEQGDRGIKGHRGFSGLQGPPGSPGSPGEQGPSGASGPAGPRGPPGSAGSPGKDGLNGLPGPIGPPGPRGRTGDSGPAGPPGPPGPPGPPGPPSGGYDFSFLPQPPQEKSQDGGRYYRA
T2 sequence (P02466 86-1125 limits assumed): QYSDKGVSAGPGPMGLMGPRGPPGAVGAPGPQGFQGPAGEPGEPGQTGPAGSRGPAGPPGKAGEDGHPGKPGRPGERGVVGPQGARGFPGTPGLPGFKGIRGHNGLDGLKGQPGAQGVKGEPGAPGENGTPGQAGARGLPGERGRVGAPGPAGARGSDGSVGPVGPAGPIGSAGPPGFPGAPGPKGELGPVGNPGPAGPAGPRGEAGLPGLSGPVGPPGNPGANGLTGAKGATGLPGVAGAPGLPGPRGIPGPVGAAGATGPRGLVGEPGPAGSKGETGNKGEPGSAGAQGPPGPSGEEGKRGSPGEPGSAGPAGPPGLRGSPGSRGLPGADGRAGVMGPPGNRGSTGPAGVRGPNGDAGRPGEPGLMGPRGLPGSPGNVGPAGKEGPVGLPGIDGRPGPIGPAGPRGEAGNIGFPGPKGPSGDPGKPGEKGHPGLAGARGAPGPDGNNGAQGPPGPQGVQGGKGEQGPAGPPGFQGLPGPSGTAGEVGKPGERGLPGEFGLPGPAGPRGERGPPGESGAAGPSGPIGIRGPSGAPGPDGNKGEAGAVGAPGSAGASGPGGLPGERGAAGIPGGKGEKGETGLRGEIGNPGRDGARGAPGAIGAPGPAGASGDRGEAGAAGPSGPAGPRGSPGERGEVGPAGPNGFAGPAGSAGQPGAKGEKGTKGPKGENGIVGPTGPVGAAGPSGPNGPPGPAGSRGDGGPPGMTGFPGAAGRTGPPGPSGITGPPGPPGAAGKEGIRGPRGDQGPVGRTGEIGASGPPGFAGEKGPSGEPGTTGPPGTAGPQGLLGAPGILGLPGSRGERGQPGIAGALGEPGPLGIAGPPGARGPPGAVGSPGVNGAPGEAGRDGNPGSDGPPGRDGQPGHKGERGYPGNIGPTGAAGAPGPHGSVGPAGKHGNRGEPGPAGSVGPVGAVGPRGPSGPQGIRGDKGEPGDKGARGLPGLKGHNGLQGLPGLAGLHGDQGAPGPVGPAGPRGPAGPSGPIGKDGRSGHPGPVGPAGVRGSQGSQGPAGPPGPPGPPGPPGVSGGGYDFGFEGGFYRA

For 2 (WGWCEWAQNNCWNY) [compound 2], the “Dried Human Collagen Binding” value in series [1] is given as 14%.

For the substance 3 (PWWCHEMPSMCFGF) [compound 3], the “Dried Human Collagen Binding” value in series [1] is given as 2%.

Turning to “13 (QWTCSGDEYTWHCNYE; disulfide 4-13 (inferred)) [compound 13]”, the “Dried Human Collagen Binding” value in series [1] is 78-85%.

As to “36 (SWSCGGDHNAWKCQYS; disulfide 4-13 (inferred)) [compound 36]”, the “Dried Human Collagen Binding” value in series [1] is 7%.

As for “37 (LWNCHGTDANWKCVLN; disulfide 4-13 (inferred)) [compound 37]”, the “Dried Human Collagen Binding” value in series [1] stood at 7%.

As for “38 (GWSCHGDAADWPCQWS; disulfide 4-13 (inferred)) [compound 38]”, in series [1], the “Dried Human Collagen Binding” value came out at 6%.

In the case of “39 (GWQCSGDASVWNCDWI; disulfide 4-13 (inferred)) [compound 39]”, the “Dried Human Collagen Binding” value in series [1] is on record as 6%.

In the case of “65 (KWECVHTKGEWYCETK; disulfide 4-13 (inferred)) [compound 65]”, the “Dried Human Collagen Binding” value in series [1] came out at 7%.

Take 74 (QWHCTTRFPHHYCLYG) [compound 74]: in series [1], the “Dried Human Collagen Binding” value is listed as 67-69%.

For “112 (AKACSVHDEFGCLIS; disulfide 4-12 (inferred)) [compound 112]”, the “Dried Human Collagen Binding” value in series [1] came out at 9%.

Take “113 (FSECVWVNAYQCEYF; disulfide 4-12 (inferred)) [compound 113]”: the “Dried Human Collagen Binding” value in series [1] was 3%.

With “130 (WWACQKGRHDWEKCRWL; disulfide 4-14 (inferred)) [compound 130]”, the “Dried Human Collagen Binding” value in series [1] is listed as 32%.

“137 (YHACYQAGCWAW; disulfide 4-9 (inferred)) [compound 137]”: the “% Collagen Binding, Dried Rat” value in series [2] came out at 7%.

With 142 (QWTCSADEYTWHCNYE) [compound 142], the “% Collagen Binding, Dried Rat” value in series [2] amounted to 6%.

For 147 (QWTCSGDEYTAHCNYE) [compound 147], the “Dried Human Collagen Binding” value in series [1] amounted to 5%.

For 159 (YHACYQAGCWIW) [compound 159], the “Dried Human Collagen Binding” value in series [1] came out at 7%.

As for 163 (YHACYQAGCWIW) [compound 163], in series [2], the “% Collagen Binding, Dried Rat” value is listed as 53%.

On to 165 (QWTCSGDEYTWHCNYE) [compound 165], for which, in series [1], the “Dried Human Collagen Binding” value is listed as 2%. Moreover, the “% Collagen Binding, Dried Rat” value in series [2] is on record as 4%.

In the case of 166 (QWTCSGDEYTWHCNYE) [compound 166], the “Dried Human Collagen Binding” value in series [1] amounted to 2%. The “% Collagen Binding, Dried Rat” value in series [2] was found to be 3%.

For 167 (QWTCSGDEYTWHCNYE) [compound 167], in series [1], the “Dried Human Collagen Binding” value is on record as 4%.

Turning to 168 (QWTCSGDEYTWHCNYE) [compound 168], in series [1], the “Dried Human Collagen Binding” value is 3%. Moreover, the “% Collagen Binding, Dried Rat” value in series [2] was 2%.

With 169 (QWTCSGDEYTWHCNYE) [compound 169], in series [2], the “% Collagen Binding, Dried Rat” value is reported as 4%.

In the case of 171 (QWTCSGDEYTWHCNYE) [compound 171], in series [2], the “% Collagen Binding, Dried Rat” value was found to be 6%.

As for 173 (QWTCSGDEYTWHCNYE) [compound 173], the “Dried Human Collagen Binding” value in series [1] came to 5%. The “% Collagen Binding, Dried Rat” value in series [2] came to 4%.

With 174 (QWTCSGDEYTWHCNYE) [compound 174], the “Dried Human Collagen Binding” value in series [1] was found to be 5%.

Turning to 175 (QWTCSGDEYTWHCNYE) [compound 175], the “Dried Human Collagen Binding” value in series [1] came out at 2%. For the same substance, in series [2], the “% Collagen Binding, Dried Rat” value is given as 2%.

In the case of 176 (QWTCSGDEYTWHCNYE) [compound 176], the “Dried Human Collagen Binding” value in series [1] came out at 2%. Further, in series [2], the “% Collagen Binding, Dried Rat” value amounted to 2%.

190 (GQWTCSGDEYTWHCNYE) [compound 190]: the “% Binding Collagen I Rat” value in series [2] (chelate conjugates) amounted to 5%.

Turning to “Compound ID 803: dual peptide, gadolinium tetramer; bb-DTPA tetramer diacid coupled to N-terminus of SEQ ID NO. 264 peptide ({bb‑DTPA gadolinium tetramer}-GQWHCTTSFPHHYCLYG; disulfide 5-14 (inferred); reading uncertain; also: Gd complex) [dual peptide, gadolinium tetramer; 264 peptide]”, in series [3], the “heart uptake relative to GdDTPA” value is “about 7 times”. Also, the “fraction of compound present at 0 minutes post infusion that remains at 10 minutes” value in series [4] is listed as 54%.

With “Q W T C S G D A Y T W H C N Y E (QWTCSGDAYTWHCNYE) [SEQ ID NO. 144]”, the “Heart:Blood” value is 0.38 in series [5] (1 min post injection) and 1.08 in series [5] (5 min post injection). In addition, the entries for the “Blood (% ID/g)” value in series [5] (1 min post injection) and in series [5] (5 min post injection) were 1.8 ± 0.2 % ID/g and 0.46 ± 0.07 % ID/g, respectively. Also, the “Heart (% ID/g)” value is given as 0.68 ± 0.01 % ID/g in series [5] (1 min post injection); 0.50 ± 0.16 % ID/g in series [5] (5 min post injection); 4.6 ± 1.1 % ID/g in series [4] (0 min after infusion); 3.1 ± 1.6 % ID/g in series [4] (10 min after infusion, non-recirculated buffer). Further, the “Heart:Buffer” value in series [3] (buffer 3.0 μM) amounted to 3.3 ± 0.8; in series [3] (buffer 30 μM), 4.0 ± 1.7. Further, the “Heart” value came out at 9.8 ± 2.3 nmol/g in series [3] (buffer 3.0 μM) and 120 ± 50 nmol/g in series [3] (buffer 30 μM). The “heart uptake relative to GdDTPA” value in series [3] was “about 10 times”. Also, the “fraction of compound present at 0 minutes post infusion that remains at 10 minutes” value in series [4] stood at 68%.

With “Q W T C S G D E Y T w H C N Y E (QWTCSGDEYT[dW]HCNYE; disulfide 4-13 (inferred)) [SEQ ID NO. 173]”, in series [3] (buffer 3.0 μM), the “Heart:Buffer” value is listed as 0.37 ± 0.08 and the “Heart” value came out at 1.1 ± 0.2 nmol/g. In addition, in series [3] (heart concentrations compared with GdDTPA), the “specific heart uptake (in words)” value is “no specific uptake”.
